Literature values in PMC2879707.

Biological target: F-actin (Oryctolagus cuniculus) (UniProt P68135)

Kd: 150 nM
Substance: espin (from UniProt Q63618)
